Data as given in article PMC12912723.

Target: PscF from strain PAO1 (Pseudomonas aeruginosa) (UniProt P95434)
Test: ELISA; competition with biotinylated P1D8

IC50: 0.01 µg/mL
Substance: P1D8 (human anti-PscF monoclonal antibody) (from UniProt P01857)
